According to article PMC9871958:

Target: SARS-CoV-2 spike ectodomain (S-trimer) (SARS-CoV-2) (UniProt P0DTC2)
Experiment: cryo-EM structure

For “SARS-CoV-2 spike ectodomain (S-trimer) (from UniProt P0DTC2 14-1213) (complex)”, which stoichiometry N is on record?
The stoichiometry N was 3.
